In paper PMC9396398, “Crystal structure of Ankyrin-G in complex with a fragment of Neurofascin reveals binding mechanisms required for integrity of the axon initial segment” (The Journal of Biological Chemistry, 2022) one finds Kd data, which are given here for one molecule.

Assay in all cases: ITC
For orientation: ITC needs no label: the signal is the heat of the interaction.

For test [1], the target named is T1, AnkG R1-24 R318A, Q351A (Rattus norvegicus).
T1 chain: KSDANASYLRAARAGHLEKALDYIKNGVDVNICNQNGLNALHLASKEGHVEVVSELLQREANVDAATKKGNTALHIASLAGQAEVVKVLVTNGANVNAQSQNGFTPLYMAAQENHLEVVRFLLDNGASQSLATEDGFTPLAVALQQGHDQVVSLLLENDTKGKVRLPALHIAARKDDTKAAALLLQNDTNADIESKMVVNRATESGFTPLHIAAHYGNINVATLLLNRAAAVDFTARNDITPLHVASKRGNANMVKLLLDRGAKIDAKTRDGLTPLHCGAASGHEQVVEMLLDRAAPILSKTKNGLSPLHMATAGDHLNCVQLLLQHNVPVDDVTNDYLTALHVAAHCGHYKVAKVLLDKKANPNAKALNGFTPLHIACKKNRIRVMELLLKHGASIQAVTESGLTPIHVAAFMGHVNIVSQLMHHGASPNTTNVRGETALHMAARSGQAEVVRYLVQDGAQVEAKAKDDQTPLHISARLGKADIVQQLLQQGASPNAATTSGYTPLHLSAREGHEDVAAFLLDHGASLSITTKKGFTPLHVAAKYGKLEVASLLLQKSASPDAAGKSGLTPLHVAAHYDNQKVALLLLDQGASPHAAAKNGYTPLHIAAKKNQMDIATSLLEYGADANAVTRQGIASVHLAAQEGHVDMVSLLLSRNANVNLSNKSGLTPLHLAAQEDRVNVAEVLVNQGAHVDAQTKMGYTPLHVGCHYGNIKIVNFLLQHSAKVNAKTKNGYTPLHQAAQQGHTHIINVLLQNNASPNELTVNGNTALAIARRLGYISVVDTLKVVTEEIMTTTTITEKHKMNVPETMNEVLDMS

In test [2] the target is T2, AnkG R1-24 L343Q, L376Q (Rattus norvegicus).
T2 chain: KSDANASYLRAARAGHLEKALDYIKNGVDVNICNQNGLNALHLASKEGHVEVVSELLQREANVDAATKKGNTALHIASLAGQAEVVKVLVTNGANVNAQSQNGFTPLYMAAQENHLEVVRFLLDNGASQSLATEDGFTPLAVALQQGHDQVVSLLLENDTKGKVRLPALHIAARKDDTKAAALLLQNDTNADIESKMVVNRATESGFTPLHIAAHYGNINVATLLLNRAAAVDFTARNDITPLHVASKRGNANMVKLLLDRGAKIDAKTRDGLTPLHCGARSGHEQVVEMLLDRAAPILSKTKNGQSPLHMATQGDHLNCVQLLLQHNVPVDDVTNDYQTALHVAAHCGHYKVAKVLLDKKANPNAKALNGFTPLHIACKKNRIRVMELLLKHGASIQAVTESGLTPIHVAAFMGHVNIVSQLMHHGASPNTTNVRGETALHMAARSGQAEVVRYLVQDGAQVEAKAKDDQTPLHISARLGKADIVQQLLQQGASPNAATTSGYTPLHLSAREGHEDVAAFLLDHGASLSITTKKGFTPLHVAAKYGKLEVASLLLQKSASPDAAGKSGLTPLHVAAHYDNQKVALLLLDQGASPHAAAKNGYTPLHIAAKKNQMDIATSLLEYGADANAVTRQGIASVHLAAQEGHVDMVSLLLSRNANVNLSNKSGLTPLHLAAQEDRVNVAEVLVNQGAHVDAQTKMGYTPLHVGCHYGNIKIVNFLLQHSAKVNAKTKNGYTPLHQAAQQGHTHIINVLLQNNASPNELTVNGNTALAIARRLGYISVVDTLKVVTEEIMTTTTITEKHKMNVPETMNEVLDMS

For test [3], the target named is T3, AnkG R1-24 M348Q (Rattus norvegicus).
T3 chain: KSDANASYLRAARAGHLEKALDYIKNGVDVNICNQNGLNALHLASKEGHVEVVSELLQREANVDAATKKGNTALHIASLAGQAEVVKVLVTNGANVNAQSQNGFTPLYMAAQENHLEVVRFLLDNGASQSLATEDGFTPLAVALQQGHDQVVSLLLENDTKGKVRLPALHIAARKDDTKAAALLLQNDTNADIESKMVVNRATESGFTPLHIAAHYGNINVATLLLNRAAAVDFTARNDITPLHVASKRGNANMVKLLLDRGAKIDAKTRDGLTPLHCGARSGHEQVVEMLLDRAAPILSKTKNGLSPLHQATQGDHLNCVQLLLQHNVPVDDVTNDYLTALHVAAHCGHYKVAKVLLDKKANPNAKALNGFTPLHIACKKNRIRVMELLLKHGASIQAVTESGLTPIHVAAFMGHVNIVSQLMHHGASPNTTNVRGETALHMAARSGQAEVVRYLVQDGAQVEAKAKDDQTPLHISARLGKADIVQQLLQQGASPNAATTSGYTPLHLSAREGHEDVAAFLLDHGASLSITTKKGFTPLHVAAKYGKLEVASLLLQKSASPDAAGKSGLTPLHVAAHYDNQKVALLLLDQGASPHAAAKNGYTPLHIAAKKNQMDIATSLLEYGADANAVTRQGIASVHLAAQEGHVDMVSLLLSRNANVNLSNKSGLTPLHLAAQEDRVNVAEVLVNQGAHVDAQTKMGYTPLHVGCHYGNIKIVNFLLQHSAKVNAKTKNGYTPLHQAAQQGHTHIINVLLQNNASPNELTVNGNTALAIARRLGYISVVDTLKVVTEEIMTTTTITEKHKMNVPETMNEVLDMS

B1: Nfasc ankyrin-binding domain (ABD, residues 1187-1214) (domain or fragment, UniProt P97685 1187-1214, looked up)
chain: SDDSLVDYGEGGEGQFNEDGSFIGQYTV
notes: also called Nfasc ABD; source: E. coli BL21 (DE3), purified (Ni-NTA, size-exclusion chromatography)
Broadly, the Kd is the free concentration of one partner at which half of the binding sites on the other are occupied at equilibrium, for simple one-to-one binding. As for B1, the Kd in test [1] was 0.67 µM; in test [2], 2 µM; in test [3], 1.8 µM.
